We go through 24 molecules from patent US20240010720A1 (IOMX THERAPEUTICS, published 2024).

Test [1] deals with T1, recombinant murine IGSF11 extracellular domain (ECD) (mouse, UniProt P0C673 23-240, biotinylated).
T1 construct: also called Mouse IGSF11; murine ECD-IGSF11
T1 sequence: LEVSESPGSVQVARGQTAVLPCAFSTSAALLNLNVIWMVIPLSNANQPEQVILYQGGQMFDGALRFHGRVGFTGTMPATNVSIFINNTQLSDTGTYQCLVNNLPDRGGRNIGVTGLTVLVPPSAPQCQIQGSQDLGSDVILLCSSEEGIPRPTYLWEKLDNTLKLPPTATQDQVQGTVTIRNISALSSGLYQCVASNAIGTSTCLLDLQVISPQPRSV
The experiment in a line: ELISA, Fab.
Method: (§1) In order to identify IGSF11-specific binding ABPs, monoclonal Fabs expressed from E. coli were generated from the enriched set of anti-IGFS11 antibody-expressing phage. After bacterial lysis, the Fabs were tested for their binding properties and cross-reactivity profile on recombinant ECD-IGSF11 (human, mouse and cynomolgus monkey) by standard ELISA. Briefly, biotinylated recombinant ECD-IGSF11 from human, mouse, or cynomolgus monkey were immobilized at 2 ug/mL on a streptavidin-coated 384-well Maxisorp plate. The surface was blocked with 2% (w/v) skim milk powder in PBST. After three wash cycles with PBST, a bacterial lysate of each of the anti-IGSF11 Fabs in 2% (w/v) skim milk powder was applied to the immobilized IGSF11 and incubated for 1 h. After removing all unbound Fab by 3 wash cycles with PBST, bound Fab antibodies were detected with a goat anti-human Fab antibody conjugated with horseradish peroxidase. After three wash cycles with PBST the ELISA was developed with TMB substrate.

Test [2] addresses T2, Streptavidin (UniProt P22629 37-163, limits assumed).
T2 construct: also called negative antigen; irrelevant antigen
The experiment in a line: ELISA, Fab.
Method: as §1

Test [3] has as its target T3, IGSF11 ECD fused to murine-Fc (human; mouse, UniProt Q5DX21 23-241).
T3 construct: also called Fc-fusion IGSF11 ECD; full-length ECD of IGSF11; not shown: murine Fc
T3 sequence: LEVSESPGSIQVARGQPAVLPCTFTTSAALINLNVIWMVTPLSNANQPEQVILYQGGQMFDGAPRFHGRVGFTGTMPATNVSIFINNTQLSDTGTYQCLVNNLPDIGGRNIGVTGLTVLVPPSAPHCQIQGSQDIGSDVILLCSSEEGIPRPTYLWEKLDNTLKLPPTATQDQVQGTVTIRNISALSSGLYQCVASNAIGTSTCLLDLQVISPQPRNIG
The experiment in a line: ELISA, IgG.

The target of test [4] is T2, Streptavidin. The test is described as follows: ELISA, scFv.
In test [5] the target is T4, human IGSF11 (VSIG3) on cells (human, UniProt Q5DX21 23-431).
T4 sequence: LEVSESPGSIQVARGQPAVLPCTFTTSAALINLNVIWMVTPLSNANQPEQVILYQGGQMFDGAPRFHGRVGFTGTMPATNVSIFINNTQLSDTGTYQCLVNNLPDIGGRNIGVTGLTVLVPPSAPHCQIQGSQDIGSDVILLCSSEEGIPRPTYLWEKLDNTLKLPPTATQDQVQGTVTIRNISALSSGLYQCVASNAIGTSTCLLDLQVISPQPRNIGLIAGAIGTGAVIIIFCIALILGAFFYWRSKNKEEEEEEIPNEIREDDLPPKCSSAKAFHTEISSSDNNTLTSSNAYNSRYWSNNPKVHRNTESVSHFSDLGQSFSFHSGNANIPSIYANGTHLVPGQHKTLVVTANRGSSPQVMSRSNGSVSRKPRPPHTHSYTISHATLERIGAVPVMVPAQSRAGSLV
The experiment in a line: FACS % positive cells, scFv.

A value given as a limit tells only on which side of the number the result lay.

T2 sequence (P22629 37-163 limits assumed): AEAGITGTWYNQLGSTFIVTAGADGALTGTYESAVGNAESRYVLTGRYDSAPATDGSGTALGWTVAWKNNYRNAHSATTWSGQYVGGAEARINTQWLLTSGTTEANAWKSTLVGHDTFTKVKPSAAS

B1: C-021 (Fab format) (Fab, V domains shown)
VH: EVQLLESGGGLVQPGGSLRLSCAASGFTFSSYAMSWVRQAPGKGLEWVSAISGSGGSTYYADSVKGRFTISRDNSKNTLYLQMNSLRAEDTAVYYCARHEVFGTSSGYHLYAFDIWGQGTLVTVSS
VL: DIQMTQSPSSLSASVGDRVTITCRASQSISSYLNWYQQKPGKAPKLLIYAASSLQSGVPSRFSGSGSGTDFTLTISSLQPEDFATYYCQQWSGLPLTFGQGTKVEIK
notes: Fab in E. coli lysate
Turning to B1, the A450 in test [1] is less than 1; with Streptavidin [2] it was less than 0.1.

B2: C-022 (IgG1 format) (antibody, V domains shown)
VH: EVQLLESGGGLVQPGGSLRLSCAASGFTFSSYAMSWVRQAPGKGLEWVSAISGSGGSTYYADSVKGRFTISRDNSKNTLYLQMNSLRAEDTAAYYCARMAAGASWGTFDYWSQGTLVTVSS
VL: DIQMTQSPSSLSASVGDRVTITCRASQSISSYLNWYQQKPGKAPKLLIYAASSLQSGVPSRFSGSGSGTDFTLTISSLQPEDFATYYCQQRSGSPLTFGQGTKVEIK
notes: wildtype human IgG1 and kappa or lambda constant regions
Consider B2, for which the EC50 in test [3] lay in the range of 1 to 20 nM.

B3: C-022 (Fab format) (Fab, V domains shown)
VH: EVQLLESGGGLVQPGGSLRLSCAASGFTFSSYAMSWVRQAPGKGLEWVSAISGSGGSTYYADSVKGRFTISRDNSKNTLYLQMNSLRAEDTAAYYCARMAAGASWGTFDYWSQGTLVTVSS
VL: DIQMTQSPSSLSASVGDRVTITCRASQSISSYLNWYQQKPGKAPKLLIYAASSLQSGVPSRFSGSGSGTDFTLTISSLQPEDFATYYCQQRSGSPLTFGQGTKVEIK
notes: Fab in E. coli lysate
In the case of B3, the A450 in the test with Streptavidin [2] is less than 0.1.

B4: C-005 (Fab format) (Fab, V domains shown)
VH: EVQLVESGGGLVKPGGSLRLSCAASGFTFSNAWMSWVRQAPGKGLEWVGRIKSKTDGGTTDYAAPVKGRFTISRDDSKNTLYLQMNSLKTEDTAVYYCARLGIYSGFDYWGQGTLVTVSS
VL: SYELTQPPSVSVSPGQTASITCSGDKLGDKYASWYQQKPGQSPVLVIYQDSKRPSGIPERFSGSNSGNTATLTISGTQAEDEADYYCHSYTGKPSQVVFGGGTKLTVL
notes: Fab in E. coli lysate
B4 yielded an A450 in the test with Streptavidin [2] of less than 0.1.

B5: C-009 (Fab format) (Fab, V domains shown)
VH: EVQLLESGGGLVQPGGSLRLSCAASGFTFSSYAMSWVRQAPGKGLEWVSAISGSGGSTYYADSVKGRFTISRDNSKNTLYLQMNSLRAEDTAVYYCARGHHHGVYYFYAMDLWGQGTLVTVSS
VL: SYELTQPPSVSVSPGQTASITCSGDKLGDKYASWYQQKPGQSPVLVIYQDSKRPSGIPERFSGSNSGNTATLTISGTQAEDEADYYCQSYSGSSTLHVFGGGTKLTVL
notes: Fab in E. coli lysate
As for B5, the A450 with Streptavidin [2] is less than 0.1.

B6: C-024 (IgG1 format) (antibody, V domains shown)
VH: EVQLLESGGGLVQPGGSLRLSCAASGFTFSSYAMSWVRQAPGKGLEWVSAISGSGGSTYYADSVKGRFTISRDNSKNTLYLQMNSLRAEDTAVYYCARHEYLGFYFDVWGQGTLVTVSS
VL: SYELTQPPSVSVSPGQTASITCSGDKLGDKYASWYQQKPGQSPVLVIYQDSKRPSGIPERFSGSNSGNTATLTISGTQAEDEADYYCLASHRLTLNYVFGGGTKLTVL
notes: as for B2
B6 yielded an EC50 in test [3] of 1 to 20 nM.

B7: C-015 (IgG1 format) (antibody, V domains shown)
VH: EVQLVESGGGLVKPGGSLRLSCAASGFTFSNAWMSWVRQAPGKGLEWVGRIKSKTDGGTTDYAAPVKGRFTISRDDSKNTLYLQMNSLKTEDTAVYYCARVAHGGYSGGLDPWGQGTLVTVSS
VL: SYELTQPPSVSVSPGQTASITCSGDKLGDKYASWYQQKPGQSPVLVIYQDSKRPSGIPERFSGSNSGNTATLTISGTQAEDEADYYCSSTGTAHTLAVFGGGTKLTVL
notes: as for B2
In test [3], B7 displayed a concentration giving a half-maximal response (EC50) of 20 to 100 nM.

B8: C-024 (Fab format) (Fab, V domains shown)
VH: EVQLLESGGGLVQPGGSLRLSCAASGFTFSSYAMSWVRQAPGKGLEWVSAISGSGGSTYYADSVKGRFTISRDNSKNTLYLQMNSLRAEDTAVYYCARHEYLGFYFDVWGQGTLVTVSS
VL: SYELTQPPSVSVSPGQTASITCSGDKLGDKYASWYQQKPGQSPVLVIYQDSKRPSGIPERFSGSNSGNTATLTISGTQAEDEADYYCLASHRLTLNYVFGGGTKLTVL
notes: Fab in E. coli lysate
In the case of B8, in test [1], the A450 was less than 1.

B9: C-015 (Fab format) (Fab, V domains shown)
VH: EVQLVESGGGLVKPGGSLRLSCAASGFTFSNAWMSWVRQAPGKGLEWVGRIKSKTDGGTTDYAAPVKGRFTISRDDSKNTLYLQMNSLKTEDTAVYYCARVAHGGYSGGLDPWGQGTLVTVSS
VL: SYELTQPPSVSVSPGQTASITCSGDKLGDKYASWYQQKPGQSPVLVIYQDSKRPSGIPERFSGSNSGNTATLTISGTQAEDEADYYCSSTGTAHTLAVFGGGTKLTVL
notes: Fab in E. coli lysate
As for B9, the values for the A450 (in test [1]; in the test with Streptavidin [2]) were less than 1 and less than 0.1, respectively.

B10: C-010 (IgG1 format) (antibody, V domains shown)
VH: QVQLVQSGAEVKKPGSSVKVSCKASGGTFSSYAISWVRQAPGQGLEWMGGIIPIFGTANYAQKFQGRVTITADESTSTAYMELSSLRSEDTAVYYCARGYGEYYPAFDVWGQGTLVTVSS
VL: SYELTQPPSVSVSPGQTASITCSGDKLGDKYASWYQQKPGQSPVLVIYQDSKRPSGIPERFSGSNSGNTATLTISGTQAEDEADYYCASYAHTHSTWVFGGGTKLTVL
notes: as for B2
Turning to B10, the half-maximal effective concentration (EC50) in test [3] was 20 to 100 nM.

B11: C-018 (IgG1 format) (antibody, V domains shown)
VH: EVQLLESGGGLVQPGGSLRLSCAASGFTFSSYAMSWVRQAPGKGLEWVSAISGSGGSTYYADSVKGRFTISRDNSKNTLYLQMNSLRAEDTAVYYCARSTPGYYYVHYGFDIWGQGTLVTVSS
VL: SYELTQPPSVSVSPGQTASITCSGDKLGDKYASWYQQKPGQSPVLVIYQDSKRPSGIPERFSGSNSGNTATLTISGTQAEDEADYYCQAWSTSTHSWVFGGGTKLTVL
notes: as for B2
B11 registered a concentration for a half-maximal effect (EC50) in test [3] of 1 to 20 nM.

B12: C-020 (Fab format) (Fab, V domains shown)
VH: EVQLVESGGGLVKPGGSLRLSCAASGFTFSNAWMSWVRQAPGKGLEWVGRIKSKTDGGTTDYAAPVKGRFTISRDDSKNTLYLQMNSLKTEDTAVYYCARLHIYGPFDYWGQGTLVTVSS
VL: SYELTQPPSVSVSPGQTASITCSGDKLGDKYASWYQQKPGQSPVLVIYQDSKRPSGIPERFSGSNSGNTATLTISGTQAEDEADYYCLSYLARSGSVVFGGGTKLTVL
notes: Fab in E. coli lysate
Take B12: the A450 in test [1] was less than 1.

B13: C-023 (Fab format) (Fab, V domains shown)
VH: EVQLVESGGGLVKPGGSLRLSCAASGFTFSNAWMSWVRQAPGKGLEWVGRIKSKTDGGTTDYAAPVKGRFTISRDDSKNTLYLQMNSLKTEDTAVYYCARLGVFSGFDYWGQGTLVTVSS
VL: SYELTQPPSVSVSPGQTASITCSGDKLGDKYASWYQQKPGQSPVLVIYQDSKRPSGIPERFSGSNSGNTATLTISGTQAEDEADYYCHTWTHHSLAVVFGGGTKLTVL
notes: Fab in E. coli lysate
For B13, the A450 is less than 1 in test [1] and less than 0.1 with Streptavidin [2].

B14: C-017 (Fab format) (Fab, V domains shown)
VH: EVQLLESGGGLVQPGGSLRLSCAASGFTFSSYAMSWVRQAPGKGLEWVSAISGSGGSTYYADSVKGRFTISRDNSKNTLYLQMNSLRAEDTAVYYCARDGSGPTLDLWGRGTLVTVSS
VL: DIQMTQSPSSLSASVGDRVTITCRASQSISSYLNWYQQKPGKAPKLLIYAASSLQSGVPSRFSGSGSGTDFTLTISSLQPEDFATYYCQQHRYIPPWTFGQGTKVEIK
notes: Fab in E. coli lysate
With B14, in test [1], the A450 is less than 1.

B15: C-008 (Fab format) (Fab, V domains shown)
VH: EVQLLESGGGLVQPGGSLRLSCAASGFTFSSYAMSWVRQAPGKGLEWVSAISGSGGSTYYADSVKGRFTISRDNSKNTLYLQMNSLRAEDTAVYYCTTDNGHNRDWGQGTLVTVSS
VL: ASVLTQPPSVSAAPGQKVTISCSGSSSNIGNNYVSWYQQLPGTAPKLLIYDNNKRPSGIPDRFSGSKSGTSATLGITGLQAEDEADYYCGTWTRSSGVFGGGTKLTVL
notes: Fab in E. coli lysate
On to B15, for which the A450 with Streptavidin [2] was less than 0.1.

B16: A-031 (scFv format) (scFv, V domains shown)
VH: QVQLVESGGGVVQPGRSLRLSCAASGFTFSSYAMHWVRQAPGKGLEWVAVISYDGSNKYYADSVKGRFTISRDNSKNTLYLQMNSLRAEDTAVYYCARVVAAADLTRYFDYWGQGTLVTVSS
VL: EIVLTQSPGTVSLSPGERATLSCRASQSVPKNYLAWFQQKPGQAPRLVIHTASSRAPGIPDRFTGSGSGTDFTLTISRLEPEDFAVYYCQQYGTSPNTFGQGTKLDIK
notes: scFv
With B16, the binding result is recorded as “no binding (tested: <0.025 or <0.05 RFU)” with Streptavidin [4] and “binds” in test [5].

B17: A-030 (scFv format) (scFv, V domains shown)
VH: QVQLVQSGAEVKKPGASVKVSCKASGYTFTGYYMHWVRQAPGQGLEWMGWINPNSGNTGYAQKFQGRVTMTRNTSISTAYMELSSLRSEDTAVYYCARGGQQQLVLDDYWGQGTLVTVSS
VL: DIQLTQSPSTLSASVGDRVTITCRASQSIGGWLAWYQHKPGKAPKLLIYAASSLQSGVPSRFSGSGSGTDFTLTISSLQPEDFATYYCRQSYSTPPTFGQGTKVEIK
notes: scFv
In the case of B17, the binding result is “no binding (tested: <0.025 or <0.05 RFU)” with Streptavidin [4] and “binds” in test [5].

B18: A-036 (scFv format) (scFv, V domains shown)
VH: QVQLVQSGAEVKKPGASVKVSCKASGYTFTGYYMHWVRQAPGQGLEWMGWINPNSGGTNYAQKFQGRVTMTRNTSISTAYMELSSLRSEDTAVYYCARGGQQQLVLDDYWGQGTLVTVSS
VL: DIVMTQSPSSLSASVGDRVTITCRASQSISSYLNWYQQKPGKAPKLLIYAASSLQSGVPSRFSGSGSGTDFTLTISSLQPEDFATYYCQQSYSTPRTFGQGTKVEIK
notes: scFv
As for B18, the binding result with Streptavidin [4] was “no binding (tested: <0.025 or <0.05 RFU)”; in test [5], “binds”.

B19: C-007 (Fab format) (Fab, V domains shown)
VH: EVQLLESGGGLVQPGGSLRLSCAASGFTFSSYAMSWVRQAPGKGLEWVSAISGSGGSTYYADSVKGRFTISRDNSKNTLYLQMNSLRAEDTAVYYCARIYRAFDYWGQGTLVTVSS
VL: ASVLTQPPSVSAAPGQKVTISCSGSSSNIGNNYVSWYQQLPGTAPKLLIYDNNKRPSGIPDRFSGSKSGTSATLGITGLQAEDEADYYCQLYEEEHSTWVFGGGTKLTVL
notes: Fab in E. coli lysate
For B19, in the test with Streptavidin [2], the A450 is less than 0.1.

B20: C-026 (IgG1 format) (antibody, V domains shown)
VH: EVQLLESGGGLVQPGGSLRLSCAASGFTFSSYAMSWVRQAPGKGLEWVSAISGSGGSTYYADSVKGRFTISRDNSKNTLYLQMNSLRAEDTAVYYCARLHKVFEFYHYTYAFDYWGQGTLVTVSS
VL: ASVLTQPPSVSAAPGQKVTISCSGSSSNIGNNYVSWYQQLPGTAPKLLIYDNNKRPSGIPDRFSGSKSGTSATLGITGLQAEDEADYYCASYSSETSGWVFGGGTKLTVL
notes: as for B2
In test [3], B20 showed an EC50 of 1 to 20 nM.

B21: C-002 (Fab format) (Fab, V domains shown)
VH: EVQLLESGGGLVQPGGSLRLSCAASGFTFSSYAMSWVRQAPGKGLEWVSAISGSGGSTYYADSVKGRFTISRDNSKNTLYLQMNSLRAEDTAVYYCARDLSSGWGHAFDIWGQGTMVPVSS
VL: ASVLTQPPSVSAAPGQKVTISCSGSSSNIGNNYVSWYQQLPGTAPKLLIYDNNKRPSGIPDRFSGSKSGTSATLGITGLQAEDEADYYCLSYTTSEHHLVFGGGTKLTVL
notes: Fab in E. coli lysate
B21: the A450 in test [1] was less than 1; with Streptavidin [2] it was less than 0.1.

B22: C-026 (Fab format) (Fab, V domains shown)
VH: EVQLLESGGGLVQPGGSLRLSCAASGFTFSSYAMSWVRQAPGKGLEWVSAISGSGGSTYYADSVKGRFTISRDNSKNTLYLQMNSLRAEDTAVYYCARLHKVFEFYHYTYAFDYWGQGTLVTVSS
VL: ASVLTQPPSVSAAPGQKVTISCSGSSSNIGNNYVSWYQQLPGTAPKLLIYDNNKRPSGIPDRFSGSKSGTSATLGITGLQAEDEADYYCASYSSETSGWVFGGGTKLTVL
notes: Fab in E. coli lysate
The molecule B22 registered an A450 with Streptavidin [2] of less than 0.1.

B23: C-016 (Fab format) (Fab, V domains shown)
VH: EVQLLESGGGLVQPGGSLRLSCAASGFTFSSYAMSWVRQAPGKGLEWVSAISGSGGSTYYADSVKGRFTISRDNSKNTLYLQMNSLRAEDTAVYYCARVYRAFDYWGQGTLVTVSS
VL: ASVLTQPPSVSAAPGQKVTISCSGSSSNIGNNYVSWYQQLPGTAPKLLIYDNNKRPSGIPDRFSGSKSGTSATLGITGLQAEDEADYYCHLYTEAESHWVFGGGTKLTVL
notes: Fab in E. coli lysate
Take B23: the figures for the A450 (in test [1]; with Streptavidin [2]) were less than 1 and less than 0.1, respectively.

B24: C-001 (Fab format) (Fab, V domains shown)
VH: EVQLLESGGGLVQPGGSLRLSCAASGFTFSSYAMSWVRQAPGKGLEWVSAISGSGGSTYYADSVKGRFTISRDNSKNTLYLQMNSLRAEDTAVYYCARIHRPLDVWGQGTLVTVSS
VL: ASVLTQPPSVSAAPGQKVTISCSGSSSNIGNNYVSWYQQLPGTAPKLLIYDNNKRPSGIPDRFSGSKSGTSATLGITGLQAEDEADYYCGSWLEERSQYVFGGGTKLTVL
notes: Fab in E. coli lysate
In turn, B24 yielded an A450 in the test with Streptavidin [2] of less than 0.1.
